T1: MPDZ_10, O75970
T1 sequence (O75970 1624-1722, limits assumed, looked up): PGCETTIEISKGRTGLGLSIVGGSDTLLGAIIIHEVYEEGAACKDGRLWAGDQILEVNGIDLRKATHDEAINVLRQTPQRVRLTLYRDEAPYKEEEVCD

T2: SNTA1, Q13424
T2 sequence (Q13424 82-180, limits assumed, looked up): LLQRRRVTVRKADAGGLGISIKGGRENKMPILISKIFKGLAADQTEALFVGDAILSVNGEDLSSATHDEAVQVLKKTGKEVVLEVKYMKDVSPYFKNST

T3: GRIP1_5, Q9Y3R0
T3 sequence (Q9Y3R0 568-668, limits assumed, looked up): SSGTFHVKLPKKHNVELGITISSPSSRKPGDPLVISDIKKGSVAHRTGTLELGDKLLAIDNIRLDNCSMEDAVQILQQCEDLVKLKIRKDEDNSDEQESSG

T4: LNX2_3, Q8N448
T4 sequence (Q8N448 463-564, limits assumed, looked up): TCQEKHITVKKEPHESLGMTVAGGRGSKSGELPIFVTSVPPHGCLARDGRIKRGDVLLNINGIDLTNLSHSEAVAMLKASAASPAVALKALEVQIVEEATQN

T5: DFNB31_3, Q9P202
T5 sequence (Q9P202 811-907, limits assumed, looked up): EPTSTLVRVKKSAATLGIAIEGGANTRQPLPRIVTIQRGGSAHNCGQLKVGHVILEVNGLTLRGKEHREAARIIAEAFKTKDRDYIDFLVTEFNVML

T6: RADIL, Q96JH8
T6 sequence (Q96JH8 971-1071, limits assumed, looked up): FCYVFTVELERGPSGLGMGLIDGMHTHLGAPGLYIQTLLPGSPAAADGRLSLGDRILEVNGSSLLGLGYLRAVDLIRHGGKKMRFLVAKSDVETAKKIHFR

T7: ARHGEF11, O15085
T7 sequence (O15085 42-136, limits assumed, looked up): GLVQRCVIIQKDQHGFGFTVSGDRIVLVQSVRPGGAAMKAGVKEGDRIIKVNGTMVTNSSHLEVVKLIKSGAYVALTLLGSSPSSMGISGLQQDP

T8: CARD11, Q9BXL7
T8 sequence (Q9BXL7 662-765, limits assumed, looked up): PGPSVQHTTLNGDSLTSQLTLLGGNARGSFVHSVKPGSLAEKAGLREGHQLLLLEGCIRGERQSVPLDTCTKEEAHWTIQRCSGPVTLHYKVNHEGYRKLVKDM

T9: NHERF3_1, Q5T2W1
T9 sequence (Q5T2W1 4-100, limits assumed, looked up): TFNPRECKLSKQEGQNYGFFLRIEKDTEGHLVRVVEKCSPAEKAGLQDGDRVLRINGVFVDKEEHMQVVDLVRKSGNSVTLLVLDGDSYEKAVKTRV

T10: GRIP1_3, Q9Y3R0
T10 sequence (Q9Y3R0 247-346, limits assumed, looked up): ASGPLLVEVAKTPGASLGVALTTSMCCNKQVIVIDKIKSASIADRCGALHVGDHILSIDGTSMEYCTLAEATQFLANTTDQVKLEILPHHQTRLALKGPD


What follows are binders tested against Inadl_4, Q8NI35 (assay: holdup assay). Conditions: plain residues with an end cap or a label only (N-terminal biotin on a linker: ado-ado).
Chain of Inadl_4, Q8NI35 (Q8NI35 547-651): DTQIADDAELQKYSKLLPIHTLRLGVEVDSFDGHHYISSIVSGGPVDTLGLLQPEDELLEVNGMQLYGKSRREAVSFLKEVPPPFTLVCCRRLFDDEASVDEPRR
Parameters: key: below the threshold = too weak to quantify, mostly under pKd 3.1 to 4
In the case of PMESGICTIV [TTC24, A2A3L6], the pKd is reported as “below the threshold”.

Each binder was assayed against T1, MPDZ_10, O75970 (assay: holdup assay). Conditions: plain residues with an end cap or a label only (N-terminal biotin on a linker: ado-ado).
Parameters: key: below the threshold = too weak to quantify, mostly under pKd 3.1 to 4
PMESGICTIV [TTC24, A2A3L6] gave a pKd of 3.76.

The binders below were run against MAGI3_2, Q5TCQ9 (assay: holdup assay). Conditions: plain residues with an end cap or a label only (N-terminal biotin on a linker: ado-ado).
Chain of MAGI3_2, Q5TCQ9 (Q5TCQ9 398-503): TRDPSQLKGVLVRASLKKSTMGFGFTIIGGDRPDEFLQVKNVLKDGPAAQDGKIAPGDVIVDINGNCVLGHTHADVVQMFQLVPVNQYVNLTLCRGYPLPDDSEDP
Parameters: key: below the threshold = too weak to quantify, mostly under pKd 3.1 to 4
PMESGICTIV [TTC24, A2A3L6] gave a pKd of 4.52.

These binders were tested against PTPN3, P26045 (assay: holdup assay). Conditions: plain residues with an end cap or a label only (N-terminal biotin on a linker: ado-ado).
Chain of PTPN3, P26045 (P26045 505-587): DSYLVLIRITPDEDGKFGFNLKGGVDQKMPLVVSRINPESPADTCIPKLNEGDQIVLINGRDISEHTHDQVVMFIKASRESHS
Parameters: key: below the threshold = too weak to quantify, mostly under pKd 3.1 to 4
PMESGICTIV [TTC24, A2A3L6] was tested, and the pKd was 3.75.

The binders below were run against Inadl_1, Q8NI35 (assay: holdup assay). Conditions: plain residues with an end cap or a label only (N-terminal biotin on a linker: ado-ado).
Chain of Inadl_1, Q8NI35 (Q8NI35 113-229): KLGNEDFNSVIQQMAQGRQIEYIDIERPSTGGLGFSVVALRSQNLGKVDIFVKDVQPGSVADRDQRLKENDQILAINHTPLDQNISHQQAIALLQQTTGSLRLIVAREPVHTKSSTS
Parameters: key: below the threshold = too weak to quantify, mostly under pKd 3.1 to 4
For PMESGICTIV [TTC24, A2A3L6], the pKd was “below the threshold”.

The binders below were run against T2, SNTA1, Q13424 (assay: holdup assay). Conditions: plain residues with an end cap or a label only (N-terminal biotin on a linker: ado-ado).
Parameters: key: below the threshold = too weak to quantify, mostly under pKd 3.1 to 4
PMESGICTIV [TTC24, A2A3L6] was tested, and the pKd was 4.61.

The binders below were run against MAGI2_2, Q86UL8 (assay: holdup assay). Conditions: plain residues with an end cap or a label only (N-terminal biotin on a linker: ado-ado).
Chain of MAGI2_2, Q86UL8 (Q86UL8 410-522): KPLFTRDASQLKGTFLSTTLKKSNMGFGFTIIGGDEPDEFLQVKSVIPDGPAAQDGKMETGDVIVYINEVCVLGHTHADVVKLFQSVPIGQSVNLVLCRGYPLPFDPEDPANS
Parameters: key: below the threshold = too weak to quantify, mostly under pKd 3.1 to 4
For PMESGICTIV [TTC24, A2A3L6], the pKd was 4.11.

Each binder was assayed against GRIP2_3, Q9C0E4 (assay: holdup assay). Conditions: plain residues with an end cap or a label only (N-terminal biotin on a linker: ado-ado).
Chain of GRIP2_3, Q9C0E4 (Q9C0E4 238-339): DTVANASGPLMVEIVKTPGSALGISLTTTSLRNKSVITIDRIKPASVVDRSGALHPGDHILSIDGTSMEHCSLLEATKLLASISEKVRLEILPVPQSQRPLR
Parameters: key: below the threshold = too weak to quantify, mostly under pKd 3.1 to 4
For PMESGICTIV [TTC24, A2A3L6], the pKd was “below the threshold”.

The binders below were run against MAGI2_5, Q86UL8 (assay: holdup assay). Conditions: plain residues with an end cap or a label only (N-terminal biotin on a linker: ado-ado).
Chain of MAGI2_5, Q86UL8 (Q86UL8 915-1017): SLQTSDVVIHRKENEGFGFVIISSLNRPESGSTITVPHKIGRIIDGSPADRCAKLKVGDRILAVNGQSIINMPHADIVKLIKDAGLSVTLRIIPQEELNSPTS
Parameters: key: below the threshold = too weak to quantify, mostly under pKd 3.1 to 4
PMESGICTIV [TTC24, A2A3L6] gave a pKd of 4.63.

These binders were tested against T3, GRIP1_5, Q9Y3R0 (assay: holdup assay). Conditions: plain residues with an end cap or a label only (N-terminal biotin on a linker: ado-ado).
Parameters: key: below the threshold = too weak to quantify, mostly under pKd 3.1 to 4
PMESGICTIV [TTC24, A2A3L6] was tested, and the pKd was “below the threshold”.

These binders were tested against T4, LNX2_3, Q8N448 (assay: holdup assay). Conditions: plain residues with an end cap or a label only (N-terminal biotin on a linker: ado-ado).
Parameters: key: below the threshold = too weak to quantify, mostly under pKd 3.1 to 4
For PMESGICTIV [TTC24, A2A3L6], the pKd was “below the threshold”.

These binders were tested against DLG1_2, Q12959 (assay: holdup assay). Conditions: plain residues with an end cap or a label only (N-terminal biotin on a linker: ado-ado).
Chain of DLG1_2, Q12959 (Q12959 314-412): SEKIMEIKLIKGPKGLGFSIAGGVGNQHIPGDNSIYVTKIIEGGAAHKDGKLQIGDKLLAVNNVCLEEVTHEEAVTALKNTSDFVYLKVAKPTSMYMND
Parameters: key: below the threshold = too weak to quantify, mostly under pKd 3.1 to 4
With PMESGICTIV [TTC24, A2A3L6] the pKd was 5.2.

What follows are binders tested against NHERF4_2, Q86UT5 (assay: holdup assay). Conditions: plain residues with an end cap or a label only (N-terminal biotin on a linker: ado-ado).
Chain of NHERF4_2, Q86UT5 (Q86UT5 220-308): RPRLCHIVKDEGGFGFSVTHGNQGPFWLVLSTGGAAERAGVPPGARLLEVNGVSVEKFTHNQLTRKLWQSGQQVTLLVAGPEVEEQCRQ
Parameters: key: below the threshold = too weak to quantify, mostly under pKd 3.1 to 4
With PMESGICTIV [TTC24, A2A3L6] the pKd was “below the threshold”.

Each binder was assayed against T5, DFNB31_3, Q9P202 (assay: holdup assay). Conditions: plain residues with an end cap or a label only (N-terminal biotin on a linker: ado-ado).
Parameters: key: below the threshold = too weak to quantify, mostly under pKd 3.1 to 4
Binder PMESGICTIV [TTC24, A2A3L6] has a pKd of 3.89.

These binders were tested against GORASP1, Q9BQQ3 (assay: holdup assay). Conditions: plain residues with an end cap or a label only (N-terminal biotin on a linker: ado-ado).
Chain of GORASP1, Q9BQQ3 (Q9BQQ3 1-208): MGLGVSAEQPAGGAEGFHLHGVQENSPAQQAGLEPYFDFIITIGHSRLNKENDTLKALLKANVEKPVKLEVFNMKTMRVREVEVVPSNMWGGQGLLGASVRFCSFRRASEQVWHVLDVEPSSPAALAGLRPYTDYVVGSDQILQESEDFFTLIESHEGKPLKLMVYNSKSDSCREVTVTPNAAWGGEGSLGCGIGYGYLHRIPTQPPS
Parameters: key: below the threshold = too weak to quantify, mostly under pKd 3.1 to 4
Binder PMESGICTIV [TTC24, A2A3L6] has a pKd of 4.72.

Each binder was assayed against T6, RADIL, Q96JH8 (assay: holdup assay). Conditions: plain residues with an end cap or a label only (N-terminal biotin on a linker: ado-ado).
Parameters: key: below the threshold = too weak to quantify, mostly under pKd 3.1 to 4
Binder PMESGICTIV [TTC24, A2A3L6] has a pKd of 5.38.

What follows are binders tested against T7, ARHGEF11, O15085 (assay: holdup assay). Conditions: plain residues with an end cap or a label only (N-terminal biotin on a linker: ado-ado).
Parameters: key: below the threshold = too weak to quantify, mostly under pKd 3.1 to 4
Binder PMESGICTIV [TTC24, A2A3L6] has a pKd of 4.85.

What follows are binders tested against DLG2_3, Q15700 (assay: holdup assay). Conditions: plain residues with an end cap or a label only (N-terminal biotin on a linker: ado-ado).
Parameters: key: below the threshold = too weak to quantify, mostly under pKd 3.1 to 4
In the case of PMESGICTIV [TTC24, A2A3L6], the pKd is reported as “below the threshold”.

Each binder was assayed against MAGI2_6, Q86UL8 (assay: holdup assay). Conditions: plain residues with an end cap or a label only (N-terminal biotin on a linker: ado-ado).
Chain of MAGI2_6, Q86UL8 (Q86UL8 1141-1229): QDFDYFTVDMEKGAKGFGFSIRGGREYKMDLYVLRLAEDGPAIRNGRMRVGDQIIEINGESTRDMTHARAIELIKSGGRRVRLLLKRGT
Parameters: key: below the threshold = too weak to quantify, mostly under pKd 3.1 to 4
Work on PMESGICTIV [TTC24, A2A3L6] yielded a pKd of 3.86.

The binders below were run against FRMPD2_2, Q68DX3 (assay: holdup assay). Conditions: plain residues with an end cap or a label only (N-terminal biotin on a linker: ado-ado).
Chain of FRMPD2_2, Q68DX3 (Q68DX3 944-1038): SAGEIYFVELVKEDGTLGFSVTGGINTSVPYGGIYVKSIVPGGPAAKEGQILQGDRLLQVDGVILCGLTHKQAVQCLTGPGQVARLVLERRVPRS
Parameters: key: below the threshold = too weak to quantify, mostly under pKd 3.1 to 4
Work on PMESGICTIV [TTC24, A2A3L6] yielded a pKd of 4.29.

These binders were tested against T8, CARD11, Q9BXL7 (assay: holdup assay). Conditions: plain residues with an end cap or a label only (N-terminal biotin on a linker: ado-ado).
Parameters: key: below the threshold = too weak to quantify, mostly under pKd 3.1 to 4
In the case of PMESGICTIV [TTC24, A2A3L6], the pKd is reported as “below the threshold”.

The binders below were run against T9, NHERF3_1, Q5T2W1 (assay: holdup assay). Conditions: plain residues with an end cap or a label only (N-terminal biotin on a linker: ado-ado).
Parameters: key: below the threshold = too weak to quantify, mostly under pKd 3.1 to 4
Work on PMESGICTIV [TTC24, A2A3L6] yielded a pKd of 4.02.

These binders were tested against HTRA2, O43464 (assay: holdup assay). Conditions: plain residues with an end cap or a label only (N-terminal biotin on a linker: ado-ado).
Chain of HTRA2, O43464 (O43464 355-458): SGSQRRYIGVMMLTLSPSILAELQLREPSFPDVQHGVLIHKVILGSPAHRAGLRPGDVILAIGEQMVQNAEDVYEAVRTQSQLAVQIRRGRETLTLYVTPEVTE
Parameters: key: below the threshold = too weak to quantify, mostly under pKd 3.1 to 4
For PMESGICTIV [TTC24, A2A3L6], the pKd was 4.18.

What follows are binders tested against DLG1_3, Q12959 (assay: holdup assay). Conditions: plain residues with an end cap or a label only (N-terminal biotin on a linker: ado-ado).
Chain of DLG1_3, Q12959 (Q12959 457-571): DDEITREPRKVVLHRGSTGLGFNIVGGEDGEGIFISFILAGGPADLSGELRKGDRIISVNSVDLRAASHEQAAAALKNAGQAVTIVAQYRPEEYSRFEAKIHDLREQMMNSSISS
Parameters: key: below the threshold = too weak to quantify, mostly under pKd 3.1 to 4
With PMESGICTIV [TTC24, A2A3L6] the pKd was 3.53.

What follows are binders tested against GRIP2_5, Q9C0E4 (assay: holdup assay). Conditions: plain residues with an end cap or a label only (N-terminal biotin on a linker: ado-ado).
Chain of GRIP2_5, Q9C0E4 (Q9C0E4 544-642): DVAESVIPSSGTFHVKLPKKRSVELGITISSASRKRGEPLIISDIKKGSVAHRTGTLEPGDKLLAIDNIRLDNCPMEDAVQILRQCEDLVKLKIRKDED
Parameters: key: below the threshold = too weak to quantify, mostly under pKd 3.1 to 4
In the case of PMESGICTIV [TTC24, A2A3L6], the pKd is reported as “below the threshold”.

What follows are binders tested against SCRIB_3, Q14160 (assay: holdup assay). Conditions: plain residues with an end cap or a label only (N-terminal biotin on a linker: ado-ado).
Chain of SCRIB_3, Q14160 (Q14160 999-1103): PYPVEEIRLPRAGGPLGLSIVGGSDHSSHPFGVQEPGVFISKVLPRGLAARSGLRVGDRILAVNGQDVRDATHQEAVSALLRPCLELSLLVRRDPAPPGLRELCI
Parameters: key: below the threshold = too weak to quantify, mostly under pKd 3.1 to 4
Work on PMESGICTIV [TTC24, A2A3L6] yielded a pKd of 4.06.

What follows are binders tested against T10, GRIP1_3, Q9Y3R0 (assay: holdup assay). Conditions: plain residues with an end cap or a label only (N-terminal biotin on a linker: ado-ado).
Parameters: key: below the threshold = too weak to quantify, mostly under pKd 3.1 to 4
PMESGICTIV [TTC24, A2A3L6] was tested, and the pKd was “below the threshold”.

Reference: PMC9482650, “Quantitative fragmentomics allow affinity mapping of interactomes” (Nature Communications, 2022)
